Results reported in patent publication US6703364B2, “Thrombin generation inhibitors” (Cleveland State University, priority 2001, dated 2004).
Entries after “also recorded” stand apart in the source; their conditions may differ. Residues, ends and D or L forms follow the SMILES beside them. No end group written: not given here.

Columns and labels:
prothrombinase [1] = molecular target: T1, prothrombinase (Homo sapiens, UniProt P00742); assay: fluorescent prothrombinase assay (DAPA; conversion of prothrombin to α-thrombin); format: biochemical; conditions: for IC50: fluorescent assay, DAPA fluorescence, read-out: IC50 for inhibition of prothrombinase activity
T1 construct: purchased Haematologic Technologies, Inc
T1 sequence (P00742 41-179 limits assumed): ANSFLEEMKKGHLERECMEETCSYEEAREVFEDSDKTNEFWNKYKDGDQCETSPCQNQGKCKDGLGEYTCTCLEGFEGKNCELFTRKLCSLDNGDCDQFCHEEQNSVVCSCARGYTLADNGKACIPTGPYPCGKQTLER
T1 sequence (P00742 235-488 limits assumed): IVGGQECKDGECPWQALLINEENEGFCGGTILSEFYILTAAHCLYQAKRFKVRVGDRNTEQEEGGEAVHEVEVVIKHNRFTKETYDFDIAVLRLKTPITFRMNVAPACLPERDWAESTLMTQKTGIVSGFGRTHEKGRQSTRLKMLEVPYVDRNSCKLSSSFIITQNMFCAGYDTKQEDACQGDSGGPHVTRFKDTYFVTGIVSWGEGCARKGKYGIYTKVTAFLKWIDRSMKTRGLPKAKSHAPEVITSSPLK
Source text: The assay used to obtain the data shown in FIG. 4 is a fluorescent assay that is described in Example 3 of this document. Briefly, the fluorescent assay, in contrast to the visual assay, measures only one reaction of the many necessary for formation of a blood clot. The fluorescent assay measures conversion of prothrombin to a-thrombin as catalyzed by prothrombinase. A fluorescent assay reaction contains prothrombin, factor Xa, factor Va and a preparation of phospholipid vesicles, which facilitate assembly of the aforementioned components into a functioning prothrombinase enzyme.
Each fluorescent assay also contains a fluorescent compound called dansylarginine-N-(3-ethyl-1,5-pentanediyl)amide (or DAPA for short). DAPA specifically binds to α-thrombin, the product of the prothrombinase reaction. Binding of DAPA by α-thrombin increases the fluorescence intensity of DAPA. In the case where no peptide inhibitor of prothrombinase is present in the reaction, high levels of α-thrombin are produced in the reaction, and DAPA fluorescence is high. When a peptide inhibitor of prothrombinase is present, little α-thrombin is produced in the reaction, and DAPA fluorescence is low. Therefore, by measuring DAPA fluorescence, the inhibitory ability of each peptide is determined.
The identity of reactions containing each peptide, as well as the reactions containing no peptide (labeled “Xa/Va”) or no peptide and no factor Va (labeled “Xa”) is shown on the x-axis of FIG. 4.
Activities of prothrombinase, as measured by DAPA fluorescence, are shown on the y-axis of FIG. 4. […] DAPA fluorescence in the absence of both peptide and factor Va (the bar labeled “APXa” in FIG. 4) is 9% of the APXa/Va activity, and is background fluorescence.
The fluorescence assay specifically measured the conversion of prothrombin to α-thrombin, one essential reaction of the many required for blood clotting (see FIG. 1). […]
The fluorescent properties of DAPA were contributed by the dansyl moiety. When bound to α-thrombin, the fluorescence intensity and lifetime of the dansyl moiety were increased three-fold. Therefore, in this assay, when prothrombinase activity was uninhibited, α-thrombin was produced (see FIG. 1) and DAPA fluorescence was high. When prothrombinase activity was inhibited, as in the presence of peptide prothrombinase inhibitors, α-thrombin was not produced and DAPA fluorescence was low.
In a typical assay, the final concentrations of reagents were as follows: prothrombin, 1.4 μM; factor Xa, 10 nM; factor Va, 1 nM; phospholipid vesicles, 20 μM; DAPA, 3 μM; peptide, 100 μM. […] After centrifugation to isolate the vesicles, the concentration of the vesicles was determined by phosphorus assay (Gomori, 1942, J Lab Clin Med, 27:955-60). […]

prothrombinase [2] = molecular target: T1, prothrombinase; assay: visual blood clotting assay (factor V-depleted plasma, thromboplastin, factor Va); format: biochemical; conditions: increasing peptide concentrations, as high as 250 μM
Source text: FIG. 3 is a graph showing inhibition of prothrombinase activity by the 42 amino acid peptide NR42, encompassing amino acids 307-348 of the human factor Va heavy chain (SEQ ID NO. 2). The assay used to obtain the data shown in FIG. 3 is a visual blood clotting assay that is described in detail in Example 2 of this document.
Briefly, in the visual blood clotting assay, reactions are set up that contain all components of the blood necessary to form a blood clot and the time required for formation of a visual blood clot is recorded. To test inhibitory activity of the NR42 peptide, different concentrations of NR42 are added to a series of such reactions. […] The time required for an observable blood clot to form in the absence of NR42 peptide (0 μM peptide on the x-axis) is designated as 100% prothrombinase activity, as shown on the y-axis of FIG. 3. Inhibition of blood clotting by […] results in longer clotting times. Longer clotting times are shown on the y-axis of the graph as decreased prothrombinase activity. […]
Factor Va was purchased or, alternatively was produced by treatment of 50 nM of purified factor V (Haematologic Technologies, Inc.) with 1 nM α-thrombin for 10 min followed by the addition of 2 nM hirudin. […] This time was arbitrarily determined to be 100% activity. […]

[3] = molecular target: prothrombinase (factor Xa plus factor Va) (human) (UniProt P00742)
[4] = molecular target: factor Xa (Homo sapiens (Human)) (UniProt P00742)
[5] = series of peptide concentrations

**Q.** How did the “inhibition of prothrombinase activity (in words)” value (prothrombinase [1]; series of peptide concentrations, up to approximately 500 μM) turn out when “P15H: 15 amino acid peptide encompassing amino acids 337-351 of human factor Va; used as negative control (PIIPANMDKKYRSLH) [Peptide P15H]” was run?
**A.** did not inhibit prothrombinase; also recorded: does not inhibit prothrombinase activity

**Q.** Which “effect on blood clotting time and prothrombinase activity (in words)” value (prothrombinase [2]) does the source give for “DR13: control peptide encompassing amino acids 697 to 709 of the factor Va heavy chain (DADSDYQDELALI)” here?
**A.** do not significantly affect blood clotting time and prothrombinase activity

**Q.** And the “effect on blood clotting time and prothrombinase activity (in words)” value (prothrombinase [2]; listed as D13R)?
**A.** did not inhibit prothrombinase activity

**Q.** How did the IC50 (prothrombinase [1]; [5]) turn out when `CC[C@H](C)[C@H](N)C(=O)N[C@@H](Cc1c[nH]c2ccccc12)C(=O)N[C@@H](CC(=O)O)C(=O)N[C@@H](Cc1ccc(O)cc1)C(=O)N[C@@H](C)C(=O)N1CCC[C@H]1C(=O)N[C@H](C(=O)N[C@H](C(=O)N1CCC[C@H]1C(=O)N[C@@H](C)C(=O)O)[C@@H](C)CC)C(C)C` [AP6, Ile Trp Asp Tyr Ala Pro Val Ile Pro Ala] (H-IWDYAPVIPA-OH) was run?
**A.** ~30 µM

**Q.** EYFAE (peptide) was tested. Which IC50, inhibition of prothrombinase, fluorescent assay (DAPA) [3] did it give?
**A.** 10 to 15 µM

**Q.** How did the prothrombinase activity by DAPA fluorescence, factor Xa with and without factor Va (% of the Xa/Va activity) [4] turn out when factor Va (from UniProt P12259) was run?
**A.** 9

**Q.** “NMDKKYRSQH [AP8, 10 amino acid peptide adjacent to and overlapping AP9]” was tested. Which “prothrombinase activity relative to the no peptide reaction” value (prothrombinase [1]; 100 μM peptide, no peptide reaction (Xa/Va) = 100%, remaining activity) did it give?
**A.** approximately 80%

**Q.** `CC[C@H](C)[C@H](NC(=O)[C@H](Cc1ccccc1)NC(=O)[C@H](Cc1ccc(O)cc1)NC(=O)[C@H](CCC(=O)O)NC(=O)[C@@H](N)Cc1c[nH]c2ccccc12)C(=O)N[C@@H](C)C(=O)N[C@@H](C)C(=O)N[C@@H](CCC(=O)O)C(=O)N[C@@H](CCC(=O)O)C(=O)N[C@H](C(=O)O)C(C)C` [AP4, Trp Glu Tyr Phe Ile Ala Ala Glu Glu Val] (H-WEYFIAAEEV-OH) was tested. Which IC50 (prothrombinase [1]; [5]) did it give?
**A.** ~5 µM
